Assays:
Assay in all cases: cell-based or functional assay
[1] = target: HIV-1 envelope glycoprotein (Env) of isolate MGRM-A-001, clade A (HIV-1)
[2] = target: HIV-1 envelope glycoprotein (Env) of isolate MGRM-A-014, clade A (HIV-1)
[3] = target: HIV-1 Env of pseudovirus MGRM-Chronic-B-011 (HIV-1)
[4] = target: HIV-1 envelope glycoprotein (Env) of isolate 92RW009, clade A (HIV-1)
[5] = target: HIV-1 Env of pseudovirus MGRM-G-009 (clade G) (HIV-1)
[6] = target: HIV-1 Env of pseudovirus 92TH021 (clade CRF01_AE) (HIV-1)
[7] = target: HIV-1 IAVI_C22 Env on pseudotyped virus (HIV-1 isolate IAVI_C22)
[8] = target: HIV-1 NL43 Env on pseudotyped virus (HIV-1 NL43)
[9] = target: HIV-1 94UG103 Env on pseudotyped virus (HIV-1 isolate 94UG103)
[10] = target: HIV-1 JR-CSF Env on pseudotyped virus (HIV-1 isolate JR-CSF) (UniProt P20871)
[11] = target: HIV-1 93IN905 Env on pseudotyped virus (HIV-1 isolate 93IN905)
[12] = target: HIV-1 92TH021 Env on pseudotyped virus (HIV-1 isolate 92TH021)
[13] = target: HIV-1 Env of isolate 94UG103 (subtype A) (HIV-1)
[14] = target: HIV-1 Env of isolate 92WR009 (subtype A) (HIV-1)
[15] = target: HIV-1 Env of isolate 92UG031 (subtype A) (HIV-1)
[16] = target: HIV-1 Env of isolate 92RW008 (subtype A) (HIV-1)
[17] = target: HIV-1 envelope glycoprotein (Env) of isolate CAAN.A2 (HIV-1)
[18] = target: HIV-1 envelope glycoprotein (Env) of isolate APV_17 (HIV-1)
[19] = target: HIV-1 Env of isolate 92UG037 (subtype A) (HIV-1)
[20] = target: HIV-1 envelope glycoprotein (Env) of isolate 93TH305 (HIV-1)
[21] = target: HIV-1 envelope glycoprotein (Env) of isolate MGRM-Chronic-B-003 (HIV-1)
[22] = target: HIV-1 Env of isolate 92WR026 (subtype A) (HIV-1)
[23] = target: HIV-1 envelope glycoprotein (Env) of isolate 6535.3 (HIV-1)
[24] = target: HIV-1 envelope glycoprotein (Env) of isolate APV_6 (HIV-1)
[25] = target: HIV-1 Env of isolate 92WR024 (subtype A) (HIV-1)
[26] = target: HIV-1 Env of isolate 92WR020 (subtype A) (HIV-1)
[27] = target: HIV-1 envelope glycoprotein (Env) of isolate MGRM-Chronic-B-004 (HIV-1)
[28] = target: HIV-1 envelope glycoprotein (Env) of isolate MGRM-Chronic-B-002 (HIV-1)
[29] = target: HIV-1 envelope glycoprotein (Env) of isolate APV_13 (HIV-1)
[30] = target: HIV-1 Env of isolate 93WR029 (subtype A) (HIV-1)
[31] = target: HIV-1 envelope glycoprotein (Env) of isolate MGRM-Chronic-B-008 (HIV-1)
[32] = target: HIV-1 Env of isolate NL43 (subtype B) (HIV-1)

4980_N08 (PGT-143) (antibody), sequence (VH): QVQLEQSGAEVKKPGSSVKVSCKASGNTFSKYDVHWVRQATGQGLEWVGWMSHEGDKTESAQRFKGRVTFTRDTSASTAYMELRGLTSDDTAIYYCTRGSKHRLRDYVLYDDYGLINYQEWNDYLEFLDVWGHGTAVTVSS
4980_N08 (PGT-143) (antibody), sequence (VL): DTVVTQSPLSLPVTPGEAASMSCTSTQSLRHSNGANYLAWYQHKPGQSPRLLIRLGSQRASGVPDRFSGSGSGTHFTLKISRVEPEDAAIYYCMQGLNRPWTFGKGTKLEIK
4995_E20 (PGT-142) (antibody), sequence (VH): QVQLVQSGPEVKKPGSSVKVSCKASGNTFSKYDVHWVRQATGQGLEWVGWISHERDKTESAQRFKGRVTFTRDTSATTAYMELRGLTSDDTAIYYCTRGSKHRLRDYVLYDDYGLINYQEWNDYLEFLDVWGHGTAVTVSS
4995_E20 (PGT-142) (antibody), sequence (VL): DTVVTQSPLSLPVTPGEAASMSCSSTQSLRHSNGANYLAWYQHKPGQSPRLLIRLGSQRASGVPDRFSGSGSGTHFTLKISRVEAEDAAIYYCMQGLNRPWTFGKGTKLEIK
4993_K13 (PGT-141) (antibody), sequence (VH): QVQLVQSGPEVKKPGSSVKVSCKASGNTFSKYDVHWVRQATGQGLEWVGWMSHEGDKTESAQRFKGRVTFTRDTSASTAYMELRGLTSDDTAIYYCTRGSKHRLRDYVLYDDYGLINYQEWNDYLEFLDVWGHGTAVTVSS
1443_C16 (PG16) (TCN-116) (antibody), sequence (VH): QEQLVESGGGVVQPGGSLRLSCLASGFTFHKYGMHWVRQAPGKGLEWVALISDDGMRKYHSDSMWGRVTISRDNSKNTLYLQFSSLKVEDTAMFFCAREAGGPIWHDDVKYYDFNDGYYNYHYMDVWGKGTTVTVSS
1443_C16 (PG16) (TCN-116) (antibody), sequence (VL): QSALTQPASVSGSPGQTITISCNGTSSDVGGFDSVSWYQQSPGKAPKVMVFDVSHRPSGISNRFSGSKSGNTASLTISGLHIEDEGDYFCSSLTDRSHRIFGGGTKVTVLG
4970_K22 (PGT-144) (antibody), sequence (VH): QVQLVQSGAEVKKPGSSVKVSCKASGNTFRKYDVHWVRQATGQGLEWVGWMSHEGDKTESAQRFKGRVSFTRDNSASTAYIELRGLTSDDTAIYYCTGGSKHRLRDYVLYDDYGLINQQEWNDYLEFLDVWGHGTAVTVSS
4970_K22 (PGT-144) (antibody), sequence (VL): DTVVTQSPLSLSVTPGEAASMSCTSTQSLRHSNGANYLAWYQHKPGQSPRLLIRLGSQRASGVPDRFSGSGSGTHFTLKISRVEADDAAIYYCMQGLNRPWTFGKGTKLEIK

Substance	IC50 (µg/ml), pseudovirus neutralization [1]	IC50 (µg/ml), pseudovirus neutralization [2]	IC50 (µg/ml), pseudovirus neutralization [3]	IC50 (µg/ml), pseudovirus neutralization [4]	IC50 [5]	IC50 [6]	IC50 (µg/mL), pseudovirus neutralization [13]	IC50 (µg/mL), pseudovirus neutralization [14]	IC50 (µg/mL), pseudovirus neutralization [15]	IC50 (µg/mL), pseudovirus neutralization [16]	IC50 (µg/mL), pseudovirus neutralization [17]	IC50 (µg/mL), pseudovirus neutralization [18]	IC50 (µg/mL), pseudovirus neutralization [19]	IC50 (µg/mL), pseudovirus neutralization [20]	IC50 (µg/mL), pseudovirus neutralization [21]	IC50 (µg/mL), pseudovirus neutralization [23]	IC50 (µg/mL), pseudovirus neutralization [24]	IC50 (µg/mL), pseudovirus neutralization [25]	IC50 (µg/mL), pseudovirus neutralization [26]	IC50 (µg/mL), pseudovirus neutralization [27]	further results
2F5 (antibody)	> 50 µg/mL	1.43 µg/mL	0.81 µg/mL	39.1 µg/mL	7.21 µg/mL	–	–	–	–	–	–	–	–	–	–	–	–	–	–	–	–
2G12 (antibody)	> 50 µg/mL	> 50 µg/mL	> 50 µg/mL	26.1 µg/mL	> 50 µg/mL	> 50 µg/mL	–	–	–	–	–	–	–	–	–	–	–	–	–	–	–
4E10 (antibody)	15.1 µg/mL	1.74 µg/mL	1.07 µg/mL	> 50 µg/mL	1.34 µg/mL	1.17 µg/mL	–	–	–	–	–	–	–	–	–	–	–	–	–	–	–
1443_C16 (PG16) (TCN-116) (antibody)	> 50 µg/mL	20.3 µg/mL	> 50 µg/mL	0.11 µg/mL	> 50 µg/mL	0.1 µg/mL	–	–	–	–	–	–	–	–	–	–	–	–	–	–	Neutralizing Antibody Assay: IC50; Virus/Ab Incubation 1 hour [7]: 0.114 µg/mL; Neutralizing Antibody Assay: IC50; Virus/Ab Incubation 18 hour [7]: 0.106 µg/mL; Neutralizing Antibody Assay: IC50; Virus/Ab Incubation 1 hour [8]: < 0.0025 µg/mL; Neutralizing Antibody Assay: IC50; Virus/Ab Incubation 18 hour [8]: 4.99 µg/mL; Neutralizing Antibody Assay: IC50; Virus/Ab Incubation 1 hour [9]: 0.0211 µg/mL; Neutralizing Antibody Assay: IC50; Virus/Ab Incubation 18 hour [9]: 0.0085 µg/mL; Neutralizing Antibody Assay: IC50; Virus/Ab Incubation 1 hour [10]: < 2.5 ng/mL; Neutralizing Antibody Assay: IC50; Virus/Ab Incubation 18 hour [10]: < 2.5 ng/mL; Neutralizing Antibody Assay: IC50; Virus/Ab Incubation 1 hour [11]: 0.33 µg/mL; Neutralizing Antibody Assay: IC50; Virus/Ab Incubation 18 hour [11]: 0.255 µg/mL; Neutralizing Antibody Assay: IC50; Virus/Ab Incubation 1 hour [12]: 0.136 µg/mL; Neutralizing Antibody Assay: IC50; Virus/Ab Incubation 18 hour [12]: 0.0435 µg/mL
1495_C14 (PGC14) (antibody)	> 50 µg/mL	> 50 µg/mL	> 50 µg/mL	> 50 µg/mL	> 50 µg/mL	> 50 µg/mL	–	–	–	–	–	–	–	–	–	–	–	–	–	–	Neutralizing Antibody Assay: IC50; Virus/Ab Incubation 1 hour [7]: > 50 µg/mL; Neutralizing Antibody Assay: IC50; Virus/Ab Incubation 18 hour [7]: 13.4 µg/mL; Neutralizing Antibody Assay: IC50; Virus/Ab Incubation 1 hour [8]: 0.35 µg/mL; Neutralizing Antibody Assay: IC50; Virus/Ab Incubation 18 hour [8]: 0.15 µg/mL; Neutralizing Antibody Assay: IC50; Virus/Ab Incubation 1 hour [9]: > 50 µg/mL; Neutralizing Antibody Assay: IC50; Virus/Ab Incubation 18 hour [9]: > 50 µg/mL; Neutralizing Antibody Assay: IC50; Virus/Ab Incubation 1 hour [10]: > 50000 ng/mL; Neutralizing Antibody Assay: IC50; Virus/Ab Incubation 18 hour [10]: > 50000 ng/mL; Neutralizing Antibody Assay: IC50; Virus/Ab Incubation 1 hour [11]: > 50 µg/mL; Neutralizing Antibody Assay: IC50; Virus/Ab Incubation 18 hour [11]: 0.146 µg/mL; Neutralizing Antibody Assay: IC50; Virus/Ab Incubation 1 hour [12]: > 50 µg/mL; Neutralizing Antibody Assay: IC50; Virus/Ab Incubation 18 hour [12]: > 50 µg/mL
1496_C09 (PG9) (TCN-109) (antibody)	–	0.62 µg/mL	–	0.03 µg/mL	4.9 µg/mL	0.09 µg/mL	–	–	–	–	–	–	–	–	–	–	–	–	–	–	Neutralizing Antibody Assay: IC50; Virus/Ab Incubation 1 hour [7]: 24.9 µg/mL; Neutralizing Antibody Assay: IC50; Virus/Ab Incubation 18 hour [7]: 2.11 µg/mL; Neutralizing Antibody Assay: IC50; Virus/Ab Incubation 1 hour [8]: 0.294 µg/mL; Neutralizing Antibody Assay: IC50; Virus/Ab Incubation 18 hour [8]: 38 µg/mL; Neutralizing Antibody Assay: IC50; Virus/Ab Incubation 1 hour [9]: 0.334 µg/mL; Neutralizing Antibody Assay: IC50; Virus/Ab Incubation 18 hour [9]: 0.0942 µg/mL; Neutralizing Antibody Assay: IC50; Virus/Ab Incubation 1 hour [10]: < 2.5 ng/mL; Neutralizing Antibody Assay: IC50; Virus/Ab Incubation 18 hour [10]: < 2.5 ng/mL; Neutralizing Antibody Assay: IC50; Virus/Ab Incubation 1 hour [11]: 0.144 µg/mL; Neutralizing Antibody Assay: IC50; Virus/Ab Incubation 18 hour [11]: 0.0619 µg/mL; Neutralizing Antibody Assay: IC50; Virus/Ab Incubation 1 hour [12]: 0.0612 µg/mL; Neutralizing Antibody Assay: IC50; Virus/Ab Incubation 18 hour [12]: 0.0571 µg/mL
4970_K22 (PGT-144) (antibody)	–	–	–	–	–	–	> 50 µg/mL	0.893 µg/mL	2.17 µg/mL	> 50 µg/mL	> 50 µg/mL	10.3 µg/mL	8.24 µg/mL	> 50 µg/mL	7.41 µg/mL	> 50 µg/mL	> 50 µg/mL	16.3 µg/mL	> 50 µg/mL	9.41 µg/mL	IC50 (µg/mL), pseudovirus neutralization [22]: 32.7 µg/mL; IC50 (µg/mL), pseudovirus neutralization [28]: > 50 µg/mL; IC50 (µg/mL), pseudovirus neutralization [29]: > 50 µg/mL; IC50 (µg/mL), pseudovirus neutralization [30]: 4.39 µg/mL; IC50 (µg/mL), pseudovirus neutralization [31]: > 50 µg/mL
4980_N08 (PGT-143) (antibody)	–	–	–	–	–	–	> 50 µg/mL	0.01 µg/mL	0.095 µg/mL	0.385 µg/mL	> 50 µg/mL	1.11 µg/mL	0.854 µg/mL	17.3 µg/mL	0.854 µg/mL	> 50 µg/mL	14 µg/mL	0.122 µg/mL	> 50 µg/mL	0.395 µg/mL	IC50 (µg/mL), pseudovirus neutralization [22]: 5.36 µg/mL; IC50 (µg/mL), pseudovirus neutralization [28]: > 50 µg/mL; IC50 (µg/mL), pseudovirus neutralization [29]: > 50 µg/mL; IC50 (µg/mL), pseudovirus neutralization [30]: 0.053 µg/mL; IC50 (µg/mL), pseudovirus neutralization [31]: > 50 µg/mL
4993_K13 (PGT-141) (antibody)	–	–	–	–	–	–	> 50 µg/mL	0.022 µg/mL	0.093 µg/mL	0.579 µg/mL	> 50 µg/mL	0.59 µg/mL	1.28 µg/mL	> 50 µg/mL	0.4 µg/mL	> 50 µg/mL	14.2 µg/mL	0.175 µg/mL	> 50 µg/mL	0.586 µg/mL	IC50 (µg/mL), pseudovirus neutralization [22]: 1.78 µg/mL; IC50 (µg/mL), pseudovirus neutralization [28]: > 50 µg/mL; IC50 (µg/mL), pseudovirus neutralization [29]: > 50 µg/mL; IC50 (µg/mL), pseudovirus neutralization [30]: 0.019 µg/mL; IC50 (µg/mL), pseudovirus neutralization [31]: > 50 µg/mL
4995_E20 (PGT-142) (antibody)	–	–	–	–	–	–	> 50 µg/mL	0.006 µg/mL	0.05 µg/mL	0.447 µg/mL	> 50 µg/mL	0.628 µg/mL	0.557 µg/mL	5.86 µg/mL	0.484 µg/mL	> 50 µg/mL	4.72 µg/mL	0.069 µg/mL	31.5 µg/mL	0.172 µg/mL	IC50 (µg/mL), pseudovirus neutralization [22]: 1.78 µg/mL; IC50 (µg/mL), pseudovirus neutralization [28]: > 50 µg/mL; IC50 (µg/mL), pseudovirus neutralization [29]: > 50 µg/mL; IC50 (µg/mL), pseudovirus neutralization [30]: 0.014 µg/mL; IC50 (µg/mL), pseudovirus neutralization [31]: > 50 µg/mL
5136_H01 (PGT-131) (antibody)	–	–	–	–	–	–	–	–	–	–	–	–	–	–	–	–	–	–	–	–	IC50 neutralization [32]: > 50 µg/mL
5147_N06 (PGT-130) (antibody)	–	–	–	–	–	–	–	–	–	–	–	–	–	–	–	–	–	–	–	–	IC50 neutralization [32]: > 50 µg/mL
VRC01 (antibody)	–	–	–	–	–	–	0.285 µg/mL	0.187 µg/mL	0.469 µg/mL	0.037 µg/mL	0.722 µg/mL	0.477 µg/mL	0.245 µg/mL	0.243 µg/mL	0.1 µg/mL	1.75 µg/mL	1.81 µg/mL	0.327 µg/mL	0.13 µg/mL	0.055 µg/mL	IC50 (µg/mL), pseudovirus neutralization [28]: 0.117 µg/mL; IC50 (µg/mL), pseudovirus neutralization [29]: 0.657 µg/mL; IC50 (µg/mL), pseudovirus neutralization [30]: 1.57 µg/mL; IC50 (µg/mL), pseudovirus neutralization [31]: 0.155 µg/mL
b12 (antibody)	> 50 µg/mL	> 50 µg/mL	2.11 µg/mL	> 50 µg/mL	> 50 µg/mL	–	–	–	–	–	–	–	–	–	–	–	–	–	–	–	–
